This passage reports Kd results from patent US20200216515A1 (CELLECTIS, published 2020).

What is called Kd is the free concentration of one partner at which half of the binding sites on the other are occupied at equilibrium, for simple one-to-one binding.

T1: CLL-1 (UniProt Q5QGZ9 65-265, limits assumed)
T1 sequence (looked up): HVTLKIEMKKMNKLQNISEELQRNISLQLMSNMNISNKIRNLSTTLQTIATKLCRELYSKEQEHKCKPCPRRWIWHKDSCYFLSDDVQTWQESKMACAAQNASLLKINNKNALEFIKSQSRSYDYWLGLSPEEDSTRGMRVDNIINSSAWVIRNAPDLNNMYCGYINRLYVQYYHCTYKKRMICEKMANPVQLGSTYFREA

B1: G12 (antibody, V domains shown)
VH: QVQLQQPGAELVKPGASMKMSCKASGYTFPSSNIHWLKQTPGQGLEWIGVIYPGNGDTSYNQKFKDKATLTTDKSSSTAYMQLSSLTSEDSAIYFCARVYNWHFDVWGAGTTVTVSS
VL: NIVLTQSPASLAVSLGQRATISCRASESVDGYGDIFMLWYQQKPGQPPKLLIYFASNLESGVPARFSGSGSRTDFTLTIDPVEADDAATYYCQQNNEDPYTFGGGTKLEIK
B2: M26 (antibody, V domains shown)
VH: EVQLQQSGPELVKPGASVKMSCKASGYTFTSYFIHWVKQKPGQGLEWIGFINPYNDGSKYNEKFKGKATLTSDKSSSTAYMELSSLTSEDSAVYYCTRDDGYYGYAMDYWGQGTLVTVSS
VL: DIQMTQSPSSLSASLGERVSLTCRATQELSGYLSWLQQKPDGTIKRLIYAASTLDSGVPKRFSGNRSGSDYSLTISSLESEDFADYYCLQYAIYPYTFGGGTKLEIK
B3: M22 (antibody, V domains shown)
VH: QVQLQQPGAELVKPGASVKLSCKASGYTFTRYWMHWVKQRPGQGLEWIGNIDPSDTETHYNQQFKDKATLTVDKSSSTAYMQLSSLTSEDSAVYYCAIYYGNPSYYAMDYWGQGTSVTVSS
VL: DIVMTQSPSSLTVTAGEKVTMSCKSSQNLLNSGNQKKYLNWYQQKPGQPPKLLIYWASTRESGVPDRFTGSGSGTDFTLTISSVQAEDLAVYFCQNDYSYPFTFGAGTKLELK
B4: M29 (antibody, V domains shown)
VH: EVQLQQSGPELVKPGASVKMSCKASGYIFTSYVMYWVKQKPGQGLEWIGYINPYNDGTKYNEKFKGKATLTSDKSSSTAYMELSSLTSEDSAVYYCARYYDYDYYFDYWGQGTTLTVSS
VL: DIQMTQSPSSLSASLGGKVTITCKASQDINKYIAWYQHKPGKGPRLLIHYTSTLQPGIPSRFSGSGSGRDYSFSISNLEPEDIATYYCLQYDYLWTFGGGTKLEIK

The experiment deals with T1, CLL-1. Briefly: method not stated (Table 2, affinity of antibodies for CLL-1).
The molecule B1 gave a Kd of 0.07 nM. With B2, the Kd was determined as 0.214 nM.

B3 registered a Kd of 0.388 nM. For the molecule B4, the affinity, expressed as Kd, was 1.48 nM.
